From article PMC515366, “A Drosophila Pattern Recognition Receptor Contains a Peptidoglycan Docking Groove and Unusual L,D-Carboxypeptidase Activity” (PLoS Biology, 2004)

Substrate: CC(=O)N[C@H]1[C@H](O[C@H]2[C@H](O[C@H](C)C(=O)N[C@@H](C)C(=O)N[C@H](CCC(=O)N[C@@H](CCC[C@@H](N)C(=O)O)C(=O)N[C@H](C)C(=O)O)C(=O)O)[C@@H](NC(C)=O)[C@@H]3OC[C@H]2O3)O[C@H](CO)[C@@H](O)[C@@H]1O
Test: purified protein
Type: biochemical, Drosophila melanogaster
Details: 20 mM HEPES pH 7.4, 2.5 mM EDTA, 37 °C, substrate 10–500 μM, releases terminal D-Ala

B1: rPGRP-SA (recombinant Drosophila PGRP-SA) (Drosophila melanogaster) (protein)
chain: GKSRQRSPANCPTIKLKRQWGGKPSLGLHYQVRPIRYVVIHHTVTGECSGLLKCAEILQNMQAYHQNELDFNDISYNFLIGNDGIVYEGTGWGLRGAHTYGYNAIGTGIAFIGNFVDKLPSDAALQAAKDLLACGVQQGELSEDYALIAGSQVISTQSPGLTLYNEIQEWPHWLSNP
notes: full-length secreted protein, own signal peptide removed, 177 residues plus C-terminal 6xHis tag; baculovirus, Hi-5 insect cells; monomer by gel filtration
**Q.** What does the source list for B1?
**A.** Km: 21.4 ± 1.8 µM; kcat: 0.000133 ± 5.6e-06 s⁻¹
